Here are results for four molecules from publication PMC5204125, “Primase is required for helicase activity and helicase alters the specificity of primase in the enteropathogen Clostridium difficile” (Open Biology, 2016).

Assay [1] addresses C. difficile replicative helicase CD3657, purified non-tagged (Clostridium difficile).
Assay [2] has the same target. The source holds these as a separate data set.
The target of assay [3] is T1, CD3657 helicase with CD3654 helicase loader (Clostridioides difficile, UniProt Q181Q5+Q181Q8).
T1 construct: gene dnaC; full-length open reading frames, non-tagged, expressed in E. coli BL21(DE3) from pET vectors; CD3657 monomer 49 kDa, CD3654 38 kDa; most probably 6:6 dodecamer with ATP (522 kDa); with Helicase loader ATPase (DnaI-like AAA+ protein)
T1 sequence (Q181Q8 1-442): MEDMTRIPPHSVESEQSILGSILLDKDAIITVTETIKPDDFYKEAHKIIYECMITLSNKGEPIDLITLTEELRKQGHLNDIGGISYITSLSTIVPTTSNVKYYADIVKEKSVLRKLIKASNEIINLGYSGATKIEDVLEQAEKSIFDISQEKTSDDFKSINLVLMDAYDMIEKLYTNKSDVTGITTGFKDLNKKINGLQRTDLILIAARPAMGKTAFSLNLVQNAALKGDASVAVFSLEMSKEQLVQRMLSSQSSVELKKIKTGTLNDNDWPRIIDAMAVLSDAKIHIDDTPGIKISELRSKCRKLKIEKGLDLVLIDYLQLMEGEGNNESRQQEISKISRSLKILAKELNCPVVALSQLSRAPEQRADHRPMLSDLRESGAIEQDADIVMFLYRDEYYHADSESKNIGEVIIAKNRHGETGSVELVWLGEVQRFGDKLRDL
T1 sequence (Q181Q5 1-330): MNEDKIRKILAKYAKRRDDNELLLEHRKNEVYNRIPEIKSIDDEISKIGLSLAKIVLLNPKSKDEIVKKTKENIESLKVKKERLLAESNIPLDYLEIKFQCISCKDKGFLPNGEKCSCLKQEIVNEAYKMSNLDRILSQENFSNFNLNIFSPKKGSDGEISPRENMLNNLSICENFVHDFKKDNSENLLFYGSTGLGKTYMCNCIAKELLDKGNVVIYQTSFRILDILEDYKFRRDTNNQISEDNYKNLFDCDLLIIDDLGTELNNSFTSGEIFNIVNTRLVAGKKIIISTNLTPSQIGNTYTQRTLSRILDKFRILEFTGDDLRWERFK
The assay can be described thus: analytical gel filtration (Superdex […]) with SDS-PAGE. The settings on record: 1 mM ATP; 2.21 uM each protein (monomer); ATP site inferred by the authors to be on CD3657 (Walker A), ATP binding itself not measured.

In assay [4] the target is C. difficile putative helicase loader CD3654, purified non-tagged (Clostridium difficile). Description: SEC; analytical gel filtration, Superdex 200 10/300 GL, CD3657 and CD3654 equimolar 2.21 µM (monomer), with 1 mM ATP; fractions on SDS-PAGE.
The target in assay [5] is C. difficile replicative helicase CD3657, purified non-tagged (Clostridium difficile). The description is as above.
Assay [6] has the same target. Description: SEC; analytical gel filtration of purified CD3657 alone, at 10 µM and above (monomer).
Assay [7] shares this target. The assay can be described thus: SEC; analytical gel filtration of CD3657 and CD3654 at high concentrations (approx. 10 µM); Figure S3.
Assay [8] shares this target. Description: SEC; analytical gel filtration, Superdex 200 10/300 GL, CD3657 and CD3654 equimolar 2.21 µM (monomer), without ATP; fractions on SDS-PAGE.
In assay [9] the target is CD3657 helicase, bacterial two-hybrid fusion (Clostridium difficile). The assay can be described thus: two-hybrid; bacterial two-hybrid: Zif fusion and RNA polymerase ω subunit fusion, Zif-dependent lacZ reporter in E. coli KDZif1ΔZ, β-galactosidase activity, n = 3.
The target in assay [10] is CD3654 putative helicase loader, bacterial two-hybrid fusion (Clostridium difficile). The assay is described as above.

“C. difficile primase CD1454, purified without an affinity tag (enzyme)”: the helicase assay: displacement of a radiolabelled oligonucleotide annealed to ssM13 by CD3657 with equimolar CD1454 against CD3657 alone, time course to 35 min in assay [1] stood at 3.5 fold. Moreover, the RNA primer production by CD1454 on the 5′-d(CTA) 23-mer ssDNA template with against without CD3657, at [CD3657]6:[CD1454]3 in [2] amounted to 45.9 nmol.

Regarding `Nc1ncnc2c1ncn2[C@@H]1O[C@H](COP(=O)(O)OP(=O)(O)OP(=O)(O)O)[C@@H](O)[C@H]1O` [ATP], the “analytical gel filtration (Superdex 200) with SDS-PAGE” value in assay [3] was “CD3657 helicase and the loader CD3654 can form a complex in an ATP-dependent manner”.

The molecule “C. difficile replicative helicase CD3657, purified non-tagged (enzyme)” gave a stoichiometry N (CD3657 per CD3654 (6:6)) in assay [4] of 1. The stoichiometry N in [5], in assay [6], in assay [7] and in assay [8] was 6 each time.

Turning to “CD3657 helicase, bacterial two-hybrid fusion (enzyme)”, the fold β-galactosidase activity over the reporter strains with the individual plasmids was determined as 3 fold in assay [9] and 5 fold in [10].
